Legend:
[1] = target: T1, BZR1 (Arabidopsis thaliana, UniProt Q8S307); experiment: Yeast two hybrid (Y2H) interaction with BZR1; format: binding; conditions: yeast strain MaV203
T1 construct: expressed in transfected cells; host or cells: yeast strain MaV203
T1 sequence (Q8S307 with tags, fused parts or gaps): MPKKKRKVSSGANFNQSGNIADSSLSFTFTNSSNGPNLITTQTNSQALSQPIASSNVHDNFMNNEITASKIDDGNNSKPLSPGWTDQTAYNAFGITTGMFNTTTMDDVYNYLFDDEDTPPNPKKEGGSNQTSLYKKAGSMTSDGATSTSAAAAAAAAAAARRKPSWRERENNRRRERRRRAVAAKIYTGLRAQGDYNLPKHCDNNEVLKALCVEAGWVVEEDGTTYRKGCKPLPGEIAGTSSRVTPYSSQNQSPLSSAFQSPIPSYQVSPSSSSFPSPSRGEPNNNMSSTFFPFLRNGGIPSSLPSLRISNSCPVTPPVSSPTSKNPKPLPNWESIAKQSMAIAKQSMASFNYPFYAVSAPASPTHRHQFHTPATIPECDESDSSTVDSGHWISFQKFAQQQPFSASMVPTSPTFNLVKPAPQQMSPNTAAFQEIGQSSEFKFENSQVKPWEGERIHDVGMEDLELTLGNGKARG

[2] = system: PEAPOD deletion mutant Δppd Arabidopsis thaliana ecotype Landsberg erecta; experiment: Complementation of the Arabidopsis Δppd mutant leaf phenotype; format: in vivo; conditions: optimized PEAPOD coding sequence under CaMV35s promoter, seedlings (FIG. 13)
Description: The functionality of any PEAPOD sequence can be confirmed by complementation of the Arabidopsis Δppd mutant leaf phenotype. Complementation of the Arabidopsis Δppd mutant leaf phenotype was first used to identify the Arabidopsis PPD gene (White 2006). This was seen by a restoration of the wild type flattened leaf phenotype and normal rosette shape as opposed to the domed leaf and the twisting of the rosette to a “propeller” phenotype.
Constructs above can be transformed into Arabidopsis by the floral dip infiltration method (Clough and Bent, 1998 Plant J 16, 735-43). The Δppd line is transformed to express the PPD polypeptides by standard techniques. Transgenic plants are confirmed by standard PCR analysis techniques with a combination of transgene-specific and T-DNA primers.
Complementation of the Δppd line to produce a wild-type leaf and rosette phenotype in T1 seedlings (the off-spring of the infiltrated plant) confirms PEAPOD functionality of the introduced gene, which can be shown in photographs.

[3] = target: T2, NINJA (Arabidopsis thaliana, UniProt Q9SV55); experiment: Yeast two hybrid (Y2H) interaction with NINJA; format: binding; conditions: PPD1 as bait protein
T2 construct: expressed in transfected cells; host or cells: yeast strain MaV203
T2 sequence (Q9SV55 with tags, fused parts or gaps): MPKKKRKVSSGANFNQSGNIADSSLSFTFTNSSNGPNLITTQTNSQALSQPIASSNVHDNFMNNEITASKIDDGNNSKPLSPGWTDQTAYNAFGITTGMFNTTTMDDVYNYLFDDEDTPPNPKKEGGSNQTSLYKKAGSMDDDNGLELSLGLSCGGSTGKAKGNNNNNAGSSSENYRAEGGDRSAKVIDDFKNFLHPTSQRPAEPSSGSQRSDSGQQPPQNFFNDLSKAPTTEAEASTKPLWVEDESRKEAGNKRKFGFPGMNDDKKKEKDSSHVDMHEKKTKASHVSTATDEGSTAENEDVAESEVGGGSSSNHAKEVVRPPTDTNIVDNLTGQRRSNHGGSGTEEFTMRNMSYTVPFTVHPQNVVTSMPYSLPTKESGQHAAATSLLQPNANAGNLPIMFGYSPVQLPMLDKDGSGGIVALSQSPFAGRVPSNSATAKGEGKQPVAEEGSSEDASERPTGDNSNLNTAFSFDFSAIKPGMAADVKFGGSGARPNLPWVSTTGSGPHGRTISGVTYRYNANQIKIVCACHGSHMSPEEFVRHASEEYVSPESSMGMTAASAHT
Experimental: Combinations of bait and prey constructs were used to co-transform yeast strain MaV203 (Invitrogen), with selection on synthetic dropout (SD) SD/-Leu/-Trp agar plates. Transformed strains were tested for interactions using 10 μl droplets of 1 in 10 and 1 in 100 dilutions on SD/-Leu/-Trp/-His plates with different concentrations of 3-aminotriazol (3-AT) (Sigma).

[4] = system: ryegrass plants; experiment: Root biomass analysis of ryegrass transformants; format: in vivo; conditions: approximately 6 weeks in glasshouse
Experimental: (§1) An equal number (typically 4-10) of tillers were taken from WT and ryegrass plants transformed with Arabidopsis PPD under a constitutive promoter. Tillers were planted into plastic grow bags containing potting mix and pruned to be of equal height. […] The increase in root biomass was quantified by washing the roots under running water then removing the attached above ground portion (leaves and stems) and drying the roots at 65° C. for 48 hr then weighing the dry weights (Table 2).
as §1, with “one of three root promoters.” for “a constitutive promoter.”, “3 and Table 4)” for “2).”

B1: Arabidopsis PPD: Arabidopsis thaliana PEAPOD 1 protein, At4g14713, SEQ ID NO: 1 (protein, listed as Arabidopsis thaliana)
chain: MDVGVSPAKSILAKPLKLLTEEDISQLTREDCRKFLKDKGMRRPSWNKSQAIQQVLSLKALYEPGDDSGAGIFRKILVSQPVNPPRVTTTLIEPSNELEACGRVSYPEDNGACHRMDSPRSAEFSGGSGHFVSEKDGHKTTISPRSPAETSELVGQMTIFYSGKVNVYDGIPPEKARSIMHFAANPIDLPENGIFASSRMISKLISKEKMMELPQKGLEKANSSRDSGMEGQANRKVSLQRYREKRKDRKFSKAKKCPGVASSSLEMFLNCQPRMKAAYSQNLGCTGSPLHSQSPESQTKSPNLSVDLNSEGI
**Q.** Which “Y2H direct interaction with BZR1” value [1] does the source give for B1 here?
**A.** Its value is “no direct interaction”.

**Q.** And the “PEAPOD functionality by complementation of Δppd mutant” value [2]?
**A.** Its value is “functionally equivalent”.

**Q.** What about the “Y2H interaction with NINJA” value [3] of the same molecule?
**A.** Its value is “direct interactor”.

**Q.** What about the “root growth beyond the grow bag compared to WT plants” value ([4]; constitutive promoter) of the same molecule?
**A.** Its value is “increase in root biomass/growth/length/branching”.

**Q.** And the “root growth beyond the grow bag compared to WT plants” value ([4]; one of three root promoters)?
**A.** Its value is “increase in root biomass/growth/length/branching”.

Reference: patent US10337022B2, “Methods of increasing root biomass in plants” (Agresearch Limited, priority 2014, dated 2019)
